Test results taken from publication PMC5581047.

Target: GST-ERα (179-312), C/D domains (UniProt P03372)
Experiment: pull-down; GST-ERα domains or full length bound to glutathione-Sepharose 4B beads, incubated with recombinant Api5 protein; Western blot

percent of the binding of Api5 to full length GST-ERα (1-595): > 60%
B1: Recombinant Api5 protein (natural protein)
chain: MPTVEELYRNYGILADATEQVGQHKDAYQVILDGVKGGTKEKRLAAQFIPKFFKHFPELADSAINAQLDLCEDEDVSIRRQAIKELPQFATGENLPRVADILTQLLQTDDSAEFNLVNNALLSIFKMDAKGTLGGLFSQILQGEDIVRERAIKFLSTKLKTLPDEVLTKEVEELILTESKKVLEDVTGEEFVLFMKILSGLKSLQTVSGRQQLVELVAEQADLEQTFNPSDPDCVDRLLQCTRQAVPLFSKNVHSTRFVTYFCEQVLPNLGTLTTPVEGLDIQLEVLKLLAEMSSFCGDMEKLETNLRKLFDKLLEYMPLPPEEAENGENAGNEEPKLQFSYVECLLYSFHQLGRKLPDFLTAKLNAEKLKDFKIRLQYFARGLQVYIRQLRLALQGKTGEALKTEENKIKVVALKITNNINVLIKDLFHIPPSYKSTVTLSWKPVQKVEIGQKRASEDTTSGSPPKKSSAGPKRDARQIYNPPSGKYSSNLGNFNYEQRGAFRGSRGGRGWGTRGNRSRGRLY
